Laboratory results taken from paper PMC7531860.

Target: CfaE, tip-localized minor adhesive subunit of CFA/I fimbriae (enterotoxigenic Escherichia coli) (UniProt P25734)
Test: […], fluorescence at 320 nm; […]

Q: For “mtCfaA (CfaA variant with the triple residue substitution T112I/L114I/V116I on the G1 strand) (natural protein)”, which mid-point dissociation concentration of GdnCl is on record?
A: 0.966 M
